Results reported in patent US20240239875A1 (CURIA IP, published 2024).
Substitutions are numbered along the chain they refer to.

B1: 1-L10-A (antibody, V domains shown)
VH: EVKLEESGGGLVQPGGSMKLSCVASGFTFNNYWMNWVRQSPEKGLEWVAQMRLKSDNYATHYAESVKGRFTISRDDSKSSVYLQMNNLRAEDTGIYYCIEGYWTYWGQGTLVTVSA
VL: QIVLTQSPAIMSASLGERVTMTCTASSSVSSSYLHWYQQKPGSSPKLWIYSTSNLASGVPARFSGNGSGTSYSLTISSMEAEDAATYYCLQYHRSPPYTFGGGTKLEIK
B2: 2-G20-A (antibody, V domains shown)
VH: EVQLQQSGPELVKPGASVKMSCKASGYTFPSYVLHWVKQKPGQGLEWIGYIYPYNDGTNYNEKFKGKATLTSDKSSSTAYMELSSLTSEDSAVYYCARGDYGDSAWFPYWGQGTLVTVSA
VL: DIVLTQSPASLAVSLGQRATISCRASKSVSTSGYSYMHWYQQKPGQPPKLLIYLASNLKSGVPARFSGGGSGTDFTLNIHPVEEEDAATYYCQLSRELPWTFGGGTKLEIK
B3: 7-D7-A (antibody, V domains shown)
VH: QVQLKESGPGLVAPSQSLSITCTVSGFSLTSYAISWVRQPPGKGLEWLGVIWPGGGTNYNSALKSRLSISKDNSKSQVFLKMNSLQTDDTAKYYCARTGYYFDYWGQGTTLTVSS
VL: QLILTQSPAIMSASPGEKVTMTCSASLSVNYMYWFQQKPGTSPKRWIHDTSKLASGVPARFSGSGSGTSYSLTISSMEAEDAATYYCQQWSSNPPMYTFGGGTKLEIK
B4: 8-A17-A (antibody, V domains shown)
VH: B3 VH with I51V, S70N, A91G, K92R, Y101H
VL: B3 VL with L2I, I3V, A25V, L27S, N30S, Y33H, F35Y, P39S, H48Y
B5: 9-F6-A (antibody, V domains shown)
VH: EVQLQQSGPELVKPGASVKMSCKASGYTFTSYIMHWVKQKPGQGLEWIGYILPYNDGTKYNEKFKGKATLTSDKSSSTAYMELRSLTSEDSAVYYCARWGYSNFLDSWGQGTTLTVSS
VL: DIQMTQTTSSLSASLGDRVTISCRASQDINNYLNWYQQKPDGTVKLLIYYTSRLHSGVPSRFSGSGSGTDYSLTIRNLEQEDIATYFCQQGNTLPPTFGGGTKLEIK
B6: 7-N20-A (antibody, V domains shown)
VH: QVQLVETGGGLVRPGNSLKLSCVTSGFTFSNYRMHWLRQPPGKRLEWIGIITDKSDNYGANYAESVKGRFAISRDDSKSSVYLEMKRLREEDTATYFCSRDGYDWYFDLWGTGTTVTVSS
VL: DIVMTQSHKFMSTSVGDRVRITCKASQDVGIVVAWYQQKPGQSPKLLIYWASTRHTGVPDRFTGSGSGTDFTLTISNVQSEDLADYFCQQYSSYPTFGGGTKLEIK
B7: 6-O12-A (antibody, V domains shown)
VH: QVQLQQPGTELVKPGASVKLSCKASGYTFTSYWMHWVKQRPGQGLEWIGNINPSNGGTNYNEKFRSKATLTVDKSSSTAYMQLSSLTSEDSAVYYCARLGWFLPLGSWGQGTTLTVSS
VL: QIVLTQSPAIMSASLGEVITLTCSASSSVSYMHWYQQKSGTSPKLLIYSTSNLASGVPSRFSGSGSGTFYSLTISSVEAEDAADYYCHQWSGYMYTFGGGTKLEIK

What was measured:
[1] = molecular target: T1, SARS-CoV-2 S2 domain (SARS-CoV-2, UniProt P0DTC2 686-1213); assay: ELISA (FIG. 2C grouping)
[2] = molecular target: T1, SARS-CoV-2 S2 domain; assay: ELISA (FIG. 10 summary)

Row | Binder | binding result [1] | binding result [2]
1 | B1 | no binding | –
2 | B2 | no binding | –
3 | B3 | no binding | –
4 | B4 | no binding | –
5 | B5 | no binding | –
6 | B6 | – | no binding
7 | B7 | no binding | –
